Results as given in paper doi:10.1101/2022.01.19.476892.

Molecular target: SARS-CoV S-6P protein (SARS-CoV) (UniProt P59594)
Assay: cryo-EM structure

SARS-CoV S-6P protein (from UniProt P59594 14-1195) (domain or fragment)
stoichiometry N: 3
